Our source for the protein stability index values is the supplement of paper PMC10567573.

B1: KLHL20 (parent)
chain: YQDMIYAVGGRDDTTELSSAERYN
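Further: lentivirally expressed fusions sorted by FACS into six bins by GFP to DsRed ratio, PSI derived from sequencing read proportions per bin multiplied by bin number.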

In this series the parent is B1. Briefly: protein stability index of a GFP-peptide fusion (GPS, HEK-293T) (PSI 1-6); higher = more stable. The conditions noted are these: c terminus: a fixed tail appended.
Take YQDMIYAVGMRDDTTELSSAERYN [G10M]: the protein stability index worked out at 1.87. With YQDMIYAVGSRDDTTELSSAERYN [G10S] the figure was 2.09; with YQDMIYAVGVRDDTTELSSAERYN [G10V], 2.05. With YQDMIYAVGHRDDTTELSSAERYN [G10H] the figure was 2.12; with YQDMIYAVGLRDDTTELSSAERYN [G10L], 1.78; with YQDMIYAVGARDDTTELSSAERYN [G10A], 1.83.

As for YQDMIYAVGIRDDTTELSSAERYN [G10I], the protein stability index came to 1.62. With YQDMIYAVGQRDDTTELSSAERYN [G10Q] the figure was 2.61; with YQDMIYAVGKRDDTTELSSAERYN [G10K], 1.83; with YQDMIYAVGWRDDTTELSSAERYN [G10W], 1.91. For the variant YQDMIYAVGNRDDTTELSSAERYN [G10N], the protein stability index was 2.45. With YQDMIYAVGDRDDTTELSSAERYN [G10D] the figure was 2.81; with YQDMIYAVGTRDDTTELSSAERYN [G10T], 1.82.

With YQDMIYAVGPRDDTTELSSAERYN [G10P], the protein stability index came out at 2.44. With YQDMIYAVGRRDDTTELSSAERYN [G10R] the figure was 1.86; with YQDMIYAVGYRDDTTELSSAERYN [G10Y], 1.8. With YQDMIYAVGERDDTTELSSAERYN [G10E] the figure was 2.92; with YQDMIYAVGFRDDTTELSSAERYN [G10F], 2.27; with YQDMIYAVGCRDDTTELSSAERYN [G10C], 2.23.

In the case of YQYMIYAVGGRDDTTELSSAERYN [D3Y], the protein stability index worked out at 1.77. As to YQWMIYAVGGRDDTTELSSAERYN [D3W], the protein stability index turned out to be 2.03. With YQTMIYAVGGRDDTTELSSAERYN [D3T] the figure was 1.56; with YQNMIYAVGGRDDTTELSSAERYN [D3N], 2.63; with YQQMIYAVGGRDDTTELSSAERYN [D3Q], 3.08. With YQFMIYAVGGRDDTTELSSAERYN [D3F] the figure was 1.88. With YQLMIYAVGGRDDTTELSSAERYN [D3L] the figure was 1.81; with YQAMIYAVGGRDDTTELSSAERYN [D3A], 1.7; with YQRMIYAVGGRDDTTELSSAERYN [D3R], 2.83. Regarding YQMMIYAVGGRDDTTELSSAERYN [D3M], the protein stability index was 1.81. With YQCMIYAVGGRDDTTELSSAERYN [D3C] the figure was 2.15.

With YQEMIYAVGGRDDTTELSSAERYN [D3E], the protein stability index stood at 2.48. With YQPMIYAVGGRDDTTELSSAERYN [D3P] the figure was 3.4; with YQGMIYAVGGRDDTTELSSAERYN [D3G], 1.47; with YQHMIYAVGGRDDTTELSSAERYN [D3H], 2.15. With YQIMIYAVGGRDDTTELSSAERYN [D3I] the figure was 2.26. Take YQSMIYAVGGRDDTTELSSAERYN [D3S]: the protein stability index was 1.99.

Consider YQKMIYAVGGRDDTTELSSAERYN [D3K], for which the protein stability index stood at 2.79.

With YQVMIYAVGGRDDTTELSSAERYN [D3V], the protein stability index was 1.86. With YIDMIYAVGGRDDTTELSSAERYN [Q2I] the figure was 1.58.

Consider YPDMIYAVGGRDDTTELSSAERYN [Q2P], for which the protein stability index was found to be 3.58. With YHDMIYAVGGRDDTTELSSAERYN [Q2H] the figure was 2.83; with YGDMIYAVGGRDDTTELSSAERYN [Q2G], 3.28.

Consider YTDMIYAVGGRDDTTELSSAERYN [Q2T], for which the protein stability index is 2.22. With YMDMIYAVGGRDDTTELSSAERYN [Q2M] the figure was 3.03; with YDDMIYAVGGRDDTTELSSAERYN [Q2D], 4.86; with YFDMIYAVGGRDDTTELSSAERYN [Q2F], 2.79. With YYDMIYAVGGRDDTTELSSAERYN [Q2Y], the protein stability index was 3.17. With YNDMIYAVGGRDDTTELSSAERYN [Q2N] the figure was 4.27. Regarding YVDMIYAVGGRDDTTELSSAERYN [Q2V], the protein stability index stood at 1.96. With YKDMIYAVGGRDDTTELSSAERYN [Q2K] the figure was 4.2; with YADMIYAVGGRDDTTELSSAERYN [Q2A], 2.3; with YSDMIYAVGGRDDTTELSSAERYN [Q2S], 3.61. With YEDMIYAVGGRDDTTELSSAERYN [Q2E] the figure was 5.02; with YCDMIYAVGGRDDTTELSSAERYN [Q2C], 2.02; with YLDMIYAVGGRDDTTELSSAERYN [Q2L], 2.85. With YWDMIYAVGGRDDTTELSSAERYN [Q2W] the figure was 2.87; with YRDMIYAVGGRDDTTELSSAERYN [Q2R], 3.6. With YQDMIYAVPGRDDTTELSSAERYN [G9P], the protein stability index worked out at 2.32. With YQDMIYAVDGRDDTTELSSAERYN [G9D] the figure was 2.88; with YQDMIYAVQGRDDTTELSSAERYN [G9Q], 2.27.

Consider YQDMIYAVWGRDDTTELSSAERYN [G9W], for which the protein stability index stood at 1.92. Regarding YQDMIYAVEGRDDTTELSSAERYN [G9E], the protein stability index was 2.53.

Take YQDMIYAVKGRDDTTELSSAERYN [G9K]: the protein stability index was found to be 2.07. As for YQDMIYAVCGRDDTTELSSAERYN [G9C], the protein stability index was 2.23. With YQDMIYAVNGRDDTTELSSAERYN [G9N] the figure was 1.95; with YQDMIYAVMGRDDTTELSSAERYN [G9M], 2.17; with YQDMIYAVHGRDDTTELSSAERYN [G9H], 1.94. YQDMIYAVRGRDDTTELSSAERYN [G9R]: the protein stability index is 2.36. With YQDMIYAVYGRDDTTELSSAERYN [G9Y] the figure was 1.32; with YQDMIYAVVGRDDTTELSSAERYN [G9V], 2.02; with YQDMIYAVIGRDDTTELSSAERYN [G9I], 1.51. Turning to YQDMIYAVSGRDDTTELSSAERYN [G9S], the protein stability index is 1.85.

Regarding YQDMIYAVFGRDDTTELSSAERYN [G9F], the protein stability index is 2.15. With YQDMIYAVAGRDDTTELSSAERYN [G9A] the figure was 1.94; with YQDMIYAVTGRDDTTELSSAERYN [G9T], 2.4. With YQDMIYAVLGRDDTTELSSAERYN [G9L] the figure was 2.01; with YQDMIEAVGGRDDTTELSSAERYN [Y6E], 4.55; with YQDMIDAVGGRDDTTELSSAERYN [Y6D], 4.74.

With YQDMIAAVGGRDDTTELSSAERYN [Y6A], the protein stability index was 3.85. With YQDMINAVGGRDDTTELSSAERYN [Y6N] the figure was 3.98.

As for YQDMIHAVGGRDDTTELSSAERYN [Y6H], the protein stability index was found to be 3.27. As to YQDMILAVGGRDDTTELSSAERYN [Y6L], the protein stability index was found to be 2.88. With YQDMIIAVGGRDDTTELSSAERYN [Y6I] the figure was 3.08; with YQDMIMAVGGRDDTTELSSAERYN [Y6M], 2.98; with YQDMIGAVGGRDDTTELSSAERYN [Y6G], 3.77. With YQDMISAVGGRDDTTELSSAERYN [Y6S] the figure was 3.88; with YQDMIKAVGGRDDTTELSSAERYN [Y6K], 3.43. With YQDMIWAVGGRDDTTELSSAERYN [Y6W] the figure was 2.51; with YQDMIQAVGGRDDTTELSSAERYN [Y6Q], 3.87; with YQDMITAVGGRDDTTELSSAERYN [Y6T], 3.94. Consider YQDMIRAVGGRDDTTELSSAERYN [Y6R], for which the protein stability index was 3.37. With YQDMICAVGGRDDTTELSSAERYN [Y6C] the figure was 2.71. With YQDMIVAVGGRDDTTELSSAERYN [Y6V] the figure was 3.01; with YQDMIPAVGGRDDTTELSSAERYN [Y6P], 3.41.
